Results as given in patent publication US6881402.

Molecular target: human Fas (human) (UniProt P25445)
Test: cell-based or functional assay

Chain of UniProt P25445 (P25445 26-335): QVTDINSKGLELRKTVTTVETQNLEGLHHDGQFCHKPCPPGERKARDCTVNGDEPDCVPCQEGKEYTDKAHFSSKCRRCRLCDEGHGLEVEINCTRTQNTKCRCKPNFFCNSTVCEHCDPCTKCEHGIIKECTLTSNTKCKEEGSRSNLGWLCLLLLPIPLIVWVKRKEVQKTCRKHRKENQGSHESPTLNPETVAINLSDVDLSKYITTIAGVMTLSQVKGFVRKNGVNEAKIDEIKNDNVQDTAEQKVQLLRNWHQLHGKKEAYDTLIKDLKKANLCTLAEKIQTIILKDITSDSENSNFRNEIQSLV

- apoptotic nuclei (DAPI) in MCF7-Fas cells transfected with pMT2 alone, treated 9 h with CH-11 (500 ng/ml) plus cycloheximide: 62%
Substance: CH-11 agonist mAb to Fas (Panvera, Madison, WI) (antibody)
